Results as given in patent publication US20230048960A1 (University of Washington, published 2023).
Square brackets hold non-standard residues; d marks the D form.

Target: Aβ42 (UniProt P05067 672-713)
Test: cell-based or functional assay

Aβ42, sequence (P05067 672-713 limits assumed): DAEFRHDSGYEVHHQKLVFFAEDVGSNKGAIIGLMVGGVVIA

Binder | % inhibition of fibril formation (ThT), AP:Aβ42 1:1 [%] | % inhibition of fibril formation (ThT), AP:Aβ42 1:10 [%] | % inhibition of fibril formation (ThT), AP:Aβ42 1:100 [%]
Ac-[dR]G[dE]M[dN]Y[dF]W[dM][dN][dE][dY][dY]G[dW]T[dM]N[dC]K[dM]G[dR]-NH2 (SMILES CSCC[C@H](NC(=O)[C@@H](CCC(=O)O)NC(=O)CNC(=O)[C@@H](CCCNC(=N)N)NC(C)=O)C(=O)N[C@H](CC(N)=O)C(=O)N[C@@H](Cc1ccc(O)cc1)C(=O)N[C@H](Cc1ccccc1)C(=O)N[C@@H](Cc1c[nH]c2ccccc12)C(=O)N[C@H](CCSC)C(=O)N[C@H](CC(N)=O)C(=O)N[C@H](CCC(=O)O)C(=O)N[C@H](Cc1ccc(O)cc1)C(=O)N[C@H](Cc1ccc(O)cc1)C(=O)NCC(=O)N[C@H](Cc1c[nH]c2ccccc12)C(=O)N[C@H](C(=O)N[C@H](CCSC)C(=O)N[C@@H](CC(N)=O)C(=O)N[C@H](CS)C(=O)N[C@@H](CCCCN)C(=O)N[C@H](CCSC)C(=O)NCC(=O)N[C@H](CCCNC(=N)N)C(N)=O)[C@@H](C)O) [AP516m] | 76.6 | 56.4 | 0
Ac-[dR]G[dE]M[dN]Y[dF]W[dM][dN][dE][dY][dY]G[dW]T[dM]N[dC]K[dM]G[dR]-NH2 (also: disulfide-linked homodimer (Cys19 to Cys19 of other copy), disulfide at 19, other end not in the chain) [AP516d] | 100 | 98.2 | 51.3
Ac-RGE[dM]N[dL]S[dW]MNEYSGW[dT]M[dN]C[dK]MGR-NH2 (also: disulfide-linked homodimer via Cys19) [AP520d] | 100 | 91.2 | 45.3
Ac-RGE[dM]N[dL]S[dW]MNEYSGW[dT]M[dN]C[dK]MGR-NH2 (SMILES CSCC[C@H](NC(=O)[C@@H](CCCCN)NC(=O)[C@H](CS)NC(=O)[C@@H](CC(N)=O)NC(=O)[C@H](CCSC)NC(=O)[C@H](NC(=O)[C@H](Cc1c[nH]c2ccccc12)NC(=O)CNC(=O)[C@H](CO)NC(=O)[C@H](Cc1ccc(O)cc1)NC(=O)[C@H](CCC(=O)O)NC(=O)[C@H](CC(N)=O)NC(=O)[C@H](CCSC)NC(=O)[C@@H](Cc1c[nH]c2ccccc12)NC(=O)[C@H](CO)NC(=O)[C@@H](CC(C)C)NC(=O)[C@H](CC(N)=O)NC(=O)[C@@H](CCSC)NC(=O)[C@H](CCC(=O)O)NC(=O)CNC(=O)[C@H](CCCNC(=N)N)NC(C)=O)[C@H](C)O)C(=O)NCC(=O)N[C@@H](CCCNC(=N)N)C(N)=O) [AP520m] | 47 | 33.1 | 0
Ac-RGN[dW]N[dE]S[dK]MNEYSGW[dM]L[dM]C[dT]MGR-NH2 (SMILES CSCC[C@H](NC(=O)[C@@H](CCCCN)NC(=O)[C@H](CO)NC(=O)[C@@H](CCC(=O)O)NC(=O)[C@H](CC(N)=O)NC(=O)[C@@H](Cc1c[nH]c2ccccc12)NC(=O)[C@H](CC(N)=O)NC(=O)CNC(=O)[C@H](CCCNC(=N)N)NC(C)=O)C(=O)N[C@@H](CC(N)=O)C(=O)N[C@@H](CCC(=O)O)C(=O)N[C@@H](Cc1ccc(O)cc1)C(=O)N[C@@H](CO)C(=O)NCC(=O)N[C@@H](Cc1c[nH]c2ccccc12)C(=O)N[C@H](CCSC)C(=O)N[C@@H](CC(C)C)C(=O)N[C@H](CCSC)C(=O)N[C@@H](CS)C(=O)N[C@@H](C(=O)N[C@@H](CCSC)C(=O)NCC(=O)N[C@@H](CCCNC(=N)N)C(N)=O)[C@H](C)O) [AP500m] | 76.6 | 9 | 0

Second part, the binder after the results:

% inhibition of fibril formation (ThT), AP:Aβ42 1:1 [%] | % inhibition of fibril formation (ThT), AP:Aβ42 1:10 [%] | % inhibition of fibril formation (ThT), AP:Aβ42 1:100 [%] | Binder
100 | 100 | 54.3 | Ac-RGE[dC]N[dL]S[dW]MNEYSGW[dT]M[dN]M[dK]MGR-NH2 (also: disulfide-linked homodimer (Cys4 to Cys4 of other copy), disulfide at 4, other end not in the chain) [AP521d]
74 | 34.6 | 0 | Ac-RGE[dC]N[dL]S[dW]MNEYSGW[dT]M[dN]M[dK]MGR-NH2 (SMILES CSCC[C@H](NC(=O)[C@@H](CCCCN)NC(=O)[C@H](CCSC)NC(=O)[C@@H](CC(N)=O)NC(=O)[C@H](CCSC)NC(=O)[C@H](NC(=O)[C@H](Cc1c[nH]c2ccccc12)NC(=O)CNC(=O)[C@H](CO)NC(=O)[C@H](Cc1ccc(O)cc1)NC(=O)[C@H](CCC(=O)O)NC(=O)[C@H](CC(N)=O)NC(=O)[C@H](CCSC)NC(=O)[C@@H](Cc1c[nH]c2ccccc12)NC(=O)[C@H](CO)NC(=O)[C@@H](CC(C)C)NC(=O)[C@H](CC(N)=O)NC(=O)[C@@H](CS)NC(=O)[C@H](CCC(=O)O)NC(=O)CNC(=O)[C@H](CCCNC(=N)N)NC(C)=O)[C@H](C)O)C(=O)NCC(=O)N[C@@H](CCCNC(=N)N)C(N)=O) [AP521m]
100 | 88.1 | 52.4 | Ac-RGE[dC]N[dL]S[dW]MNEYYGW[dT]M[dN]M[dK]MGR-NH2 (also: disulfide-linked homodimer (Cys4 to Cys4 of other copy), disulfide at 4, other end not in the chain) [AP522d]
45.7 | 12.6 | 0 | Ac-RGE[dC]N[dL]S[dW]MNEYYGW[dT]M[dN]M[dK]MGR-NH2 (SMILES CSCC[C@H](NC(=O)[C@@H](CCCCN)NC(=O)[C@H](CCSC)NC(=O)[C@@H](CC(N)=O)NC(=O)[C@H](CCSC)NC(=O)[C@H](NC(=O)[C@H](Cc1c[nH]c2ccccc12)NC(=O)CNC(=O)[C@H](Cc1ccc(O)cc1)NC(=O)[C@H](Cc1ccc(O)cc1)NC(=O)[C@H](CCC(=O)O)NC(=O)[C@H](CC(N)=O)NC(=O)[C@H](CCSC)NC(=O)[C@@H](Cc1c[nH]c2ccccc12)NC(=O)[C@H](CO)NC(=O)[C@@H](CC(C)C)NC(=O)[C@H](CC(N)=O)NC(=O)[C@@H](CS)NC(=O)[C@H](CCC(=O)O)NC(=O)CNC(=O)[C@H](CCCNC(=N)N)NC(C)=O)[C@H](C)O)C(=O)NCC(=O)N[C@@H](CCCNC(=N)N)C(N)=O) [AP522m]
